The source of these data is paper PMC12181280 (NPJ Biofilms and Microbiomes, 2025).

The target in data set [1] is S. aureus GudB (glutamate dehydrogenase) (S. aureus (endogenous in USA300 JE2)). Kind of data set: native gel or EMSA.
Data set [2] concerns the molecule itself. Description: SEC. A general note: In gel filtration, larger molecules generally elute earlier.
Data set [3] concerns the molecule itself. Description: native gel or EMSA. Background: A gel shift assay detects complexes by their altered migration in electrophoresis.

The stoichiometry N is a count of units in the complex or per binding partner.

Turning to “S. aureus GudB (glutamate dehydrogenase) (enzyme)”, in data set [1], the stoichiometry N was determined as 3.

B1: N-terminally His-tagged WT Bcd (B. subtilis Val/Leu/Ile dehydrogenase) (enzyme, UniProt P54531 1-364, looked up)
chain: MELFKYMEKYDYEQLVFCQDEQSGLKAIIAIHDTTLGPALGGTRMWTYENEEAAIEDALRLARGMTYKNAAAGLNLGGGKTVIIGDPRKDKNEEMFRAFGRYIQGLNGRYITAEDVGTTVEDMDIIHDETDYVTGISPAFGSSGNPSPVTAYGVYRGMKAAAKAAFGTDSLEGKTIAVQGVGNVAYNLCRHLHEEGANLIVTDINKQSVQRAVEDFGARAVDPDDIYSQDCDIYAPCALGATINDDTIKQLKAKVIAGAANNQLKETRHGDQIHEMGIVYAPDYVINAGGVINVADELYGYNAERALKKVEGIYGNIERVLEISQRDGIPAYLAADRLAEERIERMRRSRSQFLQNGHSVLSRR
As for B1, in data set [2], the “stoichiometry N” value came out at 6.

B2: N-terminally His-tagged Bcd(K80A) (enzyme, B. subtilis, UniProt P54531 1-364, looked up)
chain: MELFKYMEKYDYEQLVFCQDEQSGLKAIIAIHDTTLGPALGGTRMWTYENEEAAIEDALRLARGMTYKNAAAGLNLGGGATVIIGDPRKDKNEEMFRAFGRYIQGLNGRYITAEDVGTTVEDMDIIHDETDYVTGISPAFGSSGNPSPVTAYGVYRGMKAAAKAAFGTDSLEGKTIAVQGVGNVAYNLCRHLHEEGANLIVTDINKQSVQRAVEDFGARAVDPDDIYSQDCDIYAPCALGATINDDTIKQLKAKVIAGAANNQLKETRHGDQIHEMGIVYAPDYVINAGGVINVADELYGYNAERALKKVEGIYGNIERVLEISQRDGIPAYLAADRLAEERIERMRRSRSQFLQNGHSVLSRR
For B2, in data set [2], the “stoichiometry N” value was 6.

B3: Bcd, native complex in B. subtilis NCIB3610 cell lysate (enzyme, B. subtilis (endogenous in NCIB3610), UniProt P54531 1-364, looked up)
chain: MELFKYMEKYDYEQLVFCQDEQSGLKAIIAIHDTTLGPALGGTRMWTYENEEAAIEDALRLARGMTYKNAAAGLNLGGGKTVIIGDPRKDKNEEMFRAFGRYIQGLNGRYITAEDVGTTVEDMDIIHDETDYVTGISPAFGSSGNPSPVTAYGVYRGMKAAAKAAFGTDSLEGKTIAVQGVGNVAYNLCRHLHEEGANLIVTDINKQSVQRAVEDFGARAVDPDDIYSQDCDIYAPCALGATINDDTIKQLKAKVIAGAANNQLKETRHGDQIHEMGIVYAPDYVINAGGVINVADELYGYNAERALKKVEGIYGNIERVLEISQRDGIPAYLAADRLAEERIERMRRSRSQFLQNGHSVLSRR
For B3, in data set [3], the “stoichiometry N” value stood at 6.
